Patent US20210163590A1 (WUXI BIOLOGICS IRELAND, published 2021)

T1: human TIM-1 (human, UniProt Q96D42 21-290, limits assumed)
T1 sequence (looked up): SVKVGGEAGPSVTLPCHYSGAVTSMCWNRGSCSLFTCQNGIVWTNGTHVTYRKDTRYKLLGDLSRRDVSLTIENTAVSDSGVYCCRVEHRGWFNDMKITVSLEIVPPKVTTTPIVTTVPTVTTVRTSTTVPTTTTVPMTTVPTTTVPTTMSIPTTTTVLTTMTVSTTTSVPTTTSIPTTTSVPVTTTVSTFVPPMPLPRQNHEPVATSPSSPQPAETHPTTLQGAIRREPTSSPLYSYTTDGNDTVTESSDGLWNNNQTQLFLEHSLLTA

T2: human TIM-4 (human, UniProt Q96H15 25-314, limits assumed)
T2 sequence (looked up): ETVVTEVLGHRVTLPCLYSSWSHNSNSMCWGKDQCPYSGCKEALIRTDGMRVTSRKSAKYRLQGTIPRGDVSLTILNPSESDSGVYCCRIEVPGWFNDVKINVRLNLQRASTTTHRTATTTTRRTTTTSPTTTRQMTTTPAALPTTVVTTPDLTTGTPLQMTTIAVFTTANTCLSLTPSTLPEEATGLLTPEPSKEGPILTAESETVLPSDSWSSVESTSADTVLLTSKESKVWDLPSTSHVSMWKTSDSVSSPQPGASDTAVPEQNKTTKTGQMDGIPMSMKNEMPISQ

T3: cynomolgus monkey TIM-3 on the cell surface (cynomolgus monkey, UniProt A0A2K5U3G7 22-294)
T3 construct: whole, on cells; also called cyno TIM-3-expressing transfectant cells
T3 sequence: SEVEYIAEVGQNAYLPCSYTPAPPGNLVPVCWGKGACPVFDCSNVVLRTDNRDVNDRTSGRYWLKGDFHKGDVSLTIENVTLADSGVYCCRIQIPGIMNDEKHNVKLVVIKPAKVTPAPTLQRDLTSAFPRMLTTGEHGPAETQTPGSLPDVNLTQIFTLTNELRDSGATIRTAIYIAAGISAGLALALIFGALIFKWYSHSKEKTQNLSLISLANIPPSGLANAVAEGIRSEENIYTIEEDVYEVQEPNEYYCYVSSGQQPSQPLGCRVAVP

T4: W340-cynoPro1.ECD.Fc (cynomolgus monkey, UniProt A0A2K5U3G7 22-195)
T4 construct: extracellular domain; also called cynomolgus monkey TIM-3.ECD protein; not shown: C-terminal Fc tag
T4 sequence: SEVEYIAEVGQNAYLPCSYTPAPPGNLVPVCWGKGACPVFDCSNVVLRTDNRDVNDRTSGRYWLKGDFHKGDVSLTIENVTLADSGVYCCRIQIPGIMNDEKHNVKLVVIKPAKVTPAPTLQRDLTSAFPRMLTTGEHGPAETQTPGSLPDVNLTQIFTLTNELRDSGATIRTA

B1: chimeric W3402-x (antibody, human IgG4, V domains shown)
VH: QVQLKESGPGLVQSSQTLSLTCTVSGFSLTNYGVGWIRQPPGKGLEWIAIMTSGGSTYYNSALRARLNINRDTSKSQVFLEVNSLHTEDTATYFCTRDGTTVETLFDYWGQGLMVTVSS
VL: DVVLTQTPSTLSAIIGQSVSISCRSSQSLSDSAGITYLYWYLQRPGQSPQLLIYLASNLGSGVPNRFSGSGSGTDFTLKISGVEPEDLGVYHCMQGIHVPLTFGSGTKLEIK
notes: also called parental chimeric W3402-x; Parental xAb
B2: W3402-2.131.17-z3 (antibody, IgG4, V domains shown)
VH: QVQLQESGPGLVKPSETLSLTCTVSGFSLTNYGVGWIRQPPGKGLEWIGIMTSGGSTYYNSALRARVTINRDTSKNQFSLKLSSVTAADTAVYYCTRDGTTVETLFDYWGQGTMVTVSS
VL: DIVMTQTPLSLSVTPGQPASISCRSSQSLSDSAGITYLYWYLQKPGQSPQLLIYLASNLGSGVPDRFSGSGSGTDFTLKISRVEAEDVGVYYCMQGIHVPLTFGQGTKLEIK
notes: Humanized monoclonal antibody with a kappa light chain; also called W3402-z3; humanized variant W3402-z3

Key:
hTIM-3.ECD.his [1] = target: T5, hTIM-3.ECD.his (human, UniProt Q8TDQ0 22-202); assay: SPR, full kinetics
T5 construct: extracellular domain; also called W340-hPro1.ECD.His; human TIM-3 (SPR analyte); not shown: C-terminal His tag

hTIM-3.ECD.his [2] = target: T5, hTIM-3.ECD.his; assay: SPR Koff ranking; antibody captured on anti-human IgG GLM chip, analyte W340-hPro1.ECD.His
Protocol: 3.4 Koff Ranking: the humanized variants, the parental chimeric antibody, as well as negative control were injected to the sensor chip (GLM), which was pre-coated with anti-human IgG.

human TIM-1 = target: T1, human TIM-1; assay: ELISA on plate-coated human TIM-1
Description: (§1) The binding of the antibodies to the plates was detected by corresponding HRP-conjugated 2nd antibodies (see FIGS. 3A-3C).

human TIM-4 = target: T2, human TIM-4; assay: ELISA on plate-coated human TIM-4
Description: as §1

[3] = target: T3, cynomolgus monkey TIM-3 on the cell …; assay: flow cytometry on cyno TIM-3-expressing transfectant cells
Protocol: Cross species binding (FACS): the binding of TIM-3 antibodies to cynomolgus monkey TIM-3 was determined by FACS. […] MFI of the cells was measured by a flow cytometer and analyzed by FlowJo.

W340-cynoPro1.ECD.Fc = target: T4, W340-cynoPro1.ECD.Fc; assay: SPR (Biacore 8K); cyno TIM-3 ECD on CM5 chip, antibody as analyte, 1:1 fit
Description: Full kinetic binding affinity to cynomolgus monkey TIM-3 tested by surface Plasmon resonance (SPR): the sensor chip (CM5) was pre-coated with cynomolgus monkey TIM-3.ECD protein. […] The association and dissociation curve was fit to a 1:1 kinetics mode using Biacore 8K software (Table 8).

Binder | Kd (hTIM-3.ECD.his [1]) [nM] | koff (hTIM-3.ECD.his [1]) [s⁻¹] | kon (hTIM-3.ECD.his [1]) [M⁻¹ s⁻¹] | koff (hTIM-3.ECD.his [2]) [s⁻¹] | binding result (human TIM-1) | binding result (human TIM-4) | EC50 [3] [nM] | Kd (W340-cynoPro1.ECD.Fc) [nM]
B1 | 0.00937 | 2.12e-05 | 2.26e+06 | 1.95e-06 | – | – | – | –
B2 | – | – | – | – | no binding (tested: 66.7 nM) | no binding (tested: 66.7 nM) | 0.32 | 0.0209
